Measured values: the DeepSol protein solubility set

Assay: soluble on expression in E. coli; label from the status in PepcDB or PDB records

| Sequence | soluble on expression in E. coli |
| --- | --- |
| MALHDENVVWHSHPVTVQQRELHHGHRGVVLWFTGLSGSGKSTVAGALEEALHKLGVSTYLLDGDNVRHGLCSDLGFSDADRKENIRRVGEVANLMVEAGLVVLTAFISPHRAERQMVRERVGEGRFIEVFVDTPLAICEARDPKGLYKKARAGELRNFTGIDSVYEAPESAEIHLNGEQLVTNLVQQLLDLLRQNDIIRS | soluble |
| MGSDKIHHHHHHMFLMVIINPTDGMSAMSAPLDTDQLQTFIAIVDTGSFTKAAGRVFKTQSAVSMQMRRLEERIGKQLFIKDGRGNRLTAEGEKLLNYARRIVRLNSEAIAAFDDNRLEGTLRIGTPDDYADRYMPEIIGRFAKTHPNVELYIVCEPSSDLAEKMARGELDIALVTHNPATRQSDVMRTEPLCWVASANHPLRDDAPVPLAVGRRDCNWRQLACSALDADGRDYQILFTSWSSTVVAAAVLAGLAVSVLPESALRTGMKVLGQLDGFPPLPPVQIGIMKRPGMSPSLMNAITDHIAACLDNINPTAIEDDMDGETKTYSRYYPRLRAGHMIPGW | not soluble |
| MSLEFSDAELARASALQKRLVTLDSHLDTPANLERGDFDVMQGHAGNRLSQVDYPRMLEGALDGGFWAVYTGQGNRSAAAHLDDRDAGLQRLMKIHNLLAAQPQRFALATTPADAARIKAAGKRVVYISMENASPLVADPSLLRFYYAQGLRLMSTVHFLNNEFADSATDPKGAEWKGLSPAGKQLVQQALGIVIDQSHASDAVFDQLIALSPVPIVLSHSGARAVYNHPRNIDDARLKVLAAHGGVIQVNSYGGYLIDSGASPERKAAEKALADQYGGWEHLKMSDGTALSEALKALDARYPVKRATEEDFFAHLEHVLAVAGPAHVGIGMDWDGGGGVVGLEDVSDLPRITAWLLRKGYSEPQIAGIWGGNLLRVMEQAQAYAAGNRESGVGNREGHHHHHH | not soluble |
| SDITLESLRHIIAQVLPHRDPALVFKDLNVVSMLQEFWESKQQQKAAFPSEGVVVYESLPAPGPPFVSYVTLPGGSCFGNFQCCLSRAEARRDAAKVALINSLFNELPSRRITKEFIMESVQEAVASTSGTLDDADDPSTSVGAYHYMLESNMGKTMLEFQELMTIFQLLHWNGSLKALRETKCSRQEVISYYSQYSLDEKMRSHMALDWIMKERDSPGIVSQELRMALRQLEEARKAGQELRFYKEKKEILSLALTQICSDPDTSSPSDDQLSLTALCGYH | soluble |
| MGSDKIHHHHHHMSNHAIPARLQLRHITKRYPGCLANDAVDLTIQPGEIHALLGENGAGKSTLMKIIYGVTQPDAGSIIWQGQAQIMRNPAQARSLGIGMVFQHFSLFETLSVAQNIALAMGAAAGTPRQLEPRIREVSQRYGMAVEPQRLVHSLSIGERQKVEIIRCLMQDIHLLILDEPTSVLTPQEAEELFVTLRHLASEGCSILFISHKLGEVRALCHSATVLRNGKVSGHCIPAECSDLELARLMVGDAEGLTAHYEKVSGGAAFLQVDRLSWHNPDPFGCSLKDLSLEVCSGEIVGIAGVAGNGQDELLALLSGEQTLPHAQAATLRFANTPVGHLRPDARRKRGLAFVPAERLGHGAVPELSLADNALLTAFQQGLVSNGLIQRGKARALADEIIRRFAVKTPDAQAPARSLSGGNLQKFILGREILQNPKLLIAAHPTWGVDVGAAAAIHRALIALRDAGAAILVISEDLDELFQISDRLAALSGGQLSDLIPTEQTSTVQIGGWMAGQFDHSQTQAHTPG | not soluble |
| RSYGPVFEEQPAHTLFPEGSAEEKVTLTCRARANPPATYRWKMNGTELKMGPDSRYRLVAGDLVISNPVKAKDAGSYQCVATNARGTVVSREASLRFGFLQEFSAEERDPVKITEGWGVMFTCSPPPHYPALSYRWLLNEFPNFIPADGRRFVSQTTGNLYIAKTEASDLGNYSCFATSHIDFITKSVFSKFSQLSLAAEDARQYAPSIKAKFPADTYALTGQMVTLECFAFGNPVPQIKWRKLDGSQTSKWLSSEPLLHIQNVDFEDEGTYECEAENIKGRDTYQGRIIIHAQPDWLDVITDTEADIGSDLRWSCVASGKPRPAVRWLRDGQPLASQNRIEVSGGELRFSKLVLEDSGMYQCVAENKHGTVYASAELTVQA | soluble |
| MYPSDFASQLNVLSLKEMKEAIHHLLDIRDENTWMLFGTLPIYPCLNDEYDQHLLQRLRKSKNVTMRNDPDGRSRLNVNVFTGDVIVTDFGDENGTISNIQKDKLTDVFNQWLNTDLAQSLNCHCAEYQCLGPNVLVKNMYYPNTDFKKKEQIMHQHQIFS | not soluble |
| MGSDKIHHHHHHMIALGIEGTAWSLSIGVVDEEGVIALENDPYIPKEGGIHPREASQHHSERLPSLLSRVFEKVDKNSIDVVAFSQGPGMGPCLRVVATAARLLAIKLEKPLVGVNHCLAHVEVGRWQTGARKPVSLYVSGGNSQVIARRGNRYRVFGETLDIGIGNALDKLARHMGLKHPGGPKIEELAKKGQKYHFLPYVVKGMDFSFSGMVTAAQRLFDSGVRMEDVAFSFQETAFAMLTEVTERALAYLDLNEVLLVGGVAANKRLQEMLRIMCEDRGAKFYVPPKELAGDNGAMIAYTGLLMYKHGHQTPVEKSYVRPDFRIEDVEVNWD | not soluble |
| EILPNFFKSARPIEGLRPYTVLETAGRQIYIQEGCYHCHSQLIRPFQAEVDRYGAYSLSGEYAYDRPFLWGSKRIGPDLHRVGDYRTTDWHEKHMFDPKSVVPHSIMPAYKHLFTKKSDFDTAYAEALTQKKVFGVPYDTENGVKLGSVEEAKKAYLEEAKKITADMKDKRVLEAIERGEVLEIVALIAYLNSLGNSRINANQNA | not soluble |
| MGSDKIHHHHHHMPIYVYWGEDDFAMEKAIAVLRDHVLDPNWISFNYTAFTPDQADAAIQALNQVMTPTFGAGGRLVWLINTTLYQHCPENVLAELVRSLSVIPENSFLLLSSRNKPDERLKSTKLLKQFATEFREFPLIPPWKTELLVQSVNQVAQTVGVKLTANTAQLLAESVGNDTRLLYNEIEKLRLYAYGSNKPLDVDTVTKLVRNTTQNSLQLAAAIRIGDTAKALTTLADMINASEPGLRIVATLIGQFRTWLWVKIMIESGERNQQAIAIAADIGNPKRIYFLQQEIKLLSVQQLISCLPLLLELEVSLKQGASEMSTFQTKVIELCQVCQGS | not soluble |
| MAKTGMYVGLDIGTTSVKVVVAEYIEGQMNIIGVGNAKSDGLNRGIVVDIDQTVQAIQRAVRQAEEKAGIQIKSVNVGLPANLLEVESCQGMIAVSSESKEITDEDVRNVASAALVRSTPPERQIVAILPQDFTVDGFEGIKDPRGMLGVRMEMFGVVYTGPKTIIHNIRKCVEKAGLGINELVITPLALTETILTDGEKDFGTIVIDMGGGQTTTSVIHDKQLKFTHVNQEGGEFITKDISIVLNTSFNNAEALKINYGDAYPERTSANEEFPVDVIGKSEPVRVDERYLSEIIEARVEQILRKSKEVLDEIDAFELPGGVVLTGGAASMPGIVDLAQEIFEANVKLYVPNHMGLRNPVFANVISIVEYSAQLNDIYHIAKYAIPGEKSKPAQSVAVQQEVRYDTYAEQPQEEYEEFNERESGEKVTGKIKDFFSNIFD | not soluble |
| MGSDKIHHHHHHMNPIQHILDTYPLIVLDGAMATELERKGCNLNDSLWSAKILMEEPELIKQVHTDYFAAGADCAITASYQSTFEGFAARGLSEAEARRLIELSVSIAAEARDEFWSLEENRLNRPKPIIAASIGPYGAYLADGSEYRGNYAISEDELIEFHRPRMKALIEAGADVLACETIPCLTEAKAIVRLLKEFPETYAWISFSAKDGLHISDGTPAADCASWLDEHRQIAALGINCTPLQHIPSLIEELKKNTSKPIIVYPNSGEQYDPETKTWNGAACAESYGASARTWHEKGARLIGGCCRTKPENIQEIAAWARSLKTT | not soluble |
| MTTETQADRTQQAVGRIIGSIGVVTTQTTGRHQGILTSWVSQASFTPPGIMLAIPGEFDAYGLAGQNKAFVLNLLQEGRSVRRHFDHQPLPKDGDNPFSRLEHYSTQNGCLILAEALAYLECLVQSWSNIGDHVLVYATVQAGQVLQPNGITAIRHRKSGGQYLEHHHHHH | not soluble |
| SPLHVSLANGNRDLDYDSVQPYFMCDDEEEDVHHQQPPQPPAPSEDIWKKFELLPTPRPSPGHAGLYSPPCEAVAVSFAPRDHDGDSFSIADLPELPGGDAVKQSFVCDPDDETFVKNIILQDCMWNGFSASAKLVSKLDPYQAVRKEGTGVSLAADVEPATPPDCTCNT | soluble |
| MLHLIVADSELETIPEEMLDDPGVRRFAKKRNKRVDRMILDSNYMHAFIDKYYPGESKRRGRPDIIYILLEMAQESILNRKNLLRTYIHTRNDFVIKISPITRMPKSYNRFIGLFEDLFEKEIITNNGKTLLSLERMKLDELLESLKKDRTILLHPKGEFKKPSEFISTEDIAAIIGGFSEGDFRSDVSNIPEKYSIFRDELTIWSVGLEIVASYERAIGLLLEHHHHHH | not soluble |
| MMKHVFQKGKDTSKPVLLLLHGTGGNELDLLPLAEIVDSEASVLSVRGNVLENGMPRFFRRLAEGIFDEEDLIFRTKELNEFLDEAAKEYKFDRNNIVAIGYSNGANIAASLLFHYENALKGAVLHHPMVPRRGMQLANLAGKSVFIAAGTNDPICSSAESEELKVLLENANANVTMHWENRGHQLTMGEVEKAKEWYDKAF | soluble |
| MSLSQYAEMSLVYDQLTQDQPYEKWFEIVKNHCKDESNILDIGCGTGSLTVQLEALGNVTGMDLSVDMLTVAAQKSANVNWLEGDMTSFDLQQQFDIITIFCDSLNYLQDETAVIETFINVYHHLTDSGVFIFDVHTVYKMMTLFNNQSYIDDKGDIFLAWDAVQGDLPLSVYHDMTFFIRHEDETYSRFDESHFQRTFDEKTYLSWLAQVGFKHVETFTDFNIDEHNEDTERLFFIAKKEGHHHHHH | soluble |
| MTEKSLKLFIVLSRAYRSINDHMNKHIHKHGLNPTEFAVLELLYHKGDQPLQQIGDKILLASGSITYVVDKLEQKELLIRKASPTDRRVTFAQITEKGIGLLNDIFPDHAAEIDEMISVLSEEEVEMCTEMLKRVGLNAKQFHNK | not soluble |
| MGSDKIHHHHHHMSTPCILCVAITGSLPTKDNNPAVPITISEQIESTHEAFEAGATICHAHVRNDDQTPSSDPEKFERLKEGLEKHCPGMIIQFSTGGRSGAGKARGGMLPLAPDMASLSVGSNNFPTRVYENPPDLVDWLAGEMRTHQVTPEVEAFDLSHILNAIALHKSGALYGKLYVQFVMGVKNAMPADKEVFDFYVDLVKRRAPDANWCAAGIGANQLVVNEWAIAAGGHTRAGLEDNVRLDRNTLAPSNAALIRRAAELCEKYERPVATWQQAREILDVPLRA | not soluble |
| MSLRGGEDSPVDGARQAAANVFGPIENGVSSAVDPVGNAVSAVRDSGDRHDRLARLETENAALKAKSGSDERGRSRLKQFDKMLGLAGAGQYGIKGAQVIAIGAAQGFSWTITIDAGANDGVKRDMTVLNGDGLVGRVTTVGPNTATVLLANDPDFTVGTRMESGDELGFASGQGSRPLRVELLNGKADVKKGDRLVTFGSQADKPFVPGVPVGTITRVDPNGGDLTRILDVTPFVSFTKLDIVGVVVQAPSKDPRDTVLPEKKQPKPTPTVTVTVTPGADPEGQTRNDEAGQDEAAGQNDATGQNDQTEQQNEQPEPEGHHHHHH | soluble |
| GMTKAREFLGTGWKFPVAAGADGAMVLSSAEEDIAESIRIILGTARGERVMRPDFGCGIHDRVFSVINTTTLGLIENEVKEALILWEPRIELLSVTASPREAAEGRLLIDIEYRVRSTNTRFNLVYPFYLKESA | soluble |
| MLPSQHKLSNSEQFRATIRKGKRAGRSTVVLHFYAEATAGNLATAGGPRFGLVVSKAVGNAVTRHRVSRQLRHVVIAMKDQFPASSHVVVRALPPAATASSEELRADVQAALDKLNRKR | not soluble |
